Experimental data as given in US20160009821A1 (TDW GROUP, published 2016).

Target: T1, Human argininosuccinate synthase (endogenous, in human tissues and human cancer cell lines) (human, UniProt P00966 1-412)
T1 construct: Endogenous protein in formalin-fixed, paraffin-embedded human tissue and cell line sections, with cytoplasmic staining; also called ASS; ASS1
T1 sequence: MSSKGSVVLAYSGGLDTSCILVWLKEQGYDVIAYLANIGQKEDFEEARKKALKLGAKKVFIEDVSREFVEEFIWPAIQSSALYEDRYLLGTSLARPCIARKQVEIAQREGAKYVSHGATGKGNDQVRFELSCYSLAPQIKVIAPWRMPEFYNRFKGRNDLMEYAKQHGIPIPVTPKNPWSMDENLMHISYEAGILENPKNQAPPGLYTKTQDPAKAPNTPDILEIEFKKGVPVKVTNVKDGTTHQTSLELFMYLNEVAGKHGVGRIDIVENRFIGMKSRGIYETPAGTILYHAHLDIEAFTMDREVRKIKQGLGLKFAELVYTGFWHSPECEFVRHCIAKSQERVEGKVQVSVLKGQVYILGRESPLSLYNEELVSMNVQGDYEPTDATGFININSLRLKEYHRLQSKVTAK
Assay: immunohistochemistry on formalin-fixed, paraffin-embedded clinical samples
Description: Formalin-fixed, paraffin-embedded specimens were sectioned at 4-5 μm and mounted on positively charged slides. Slides were air dried and then placed in a 60° C. oven for 60 minutes. Slides were stained using the Leica Bond III instrument. Paraffin was removed from the slides using the standard Leica Bond dewax protocol. The tissue was antigen retrieved with either Bond ER1 for 5 or Bond ER2 for 20 minutes.
Mouse anti-argininosuccinate synthase monoclonal antibody was applied to the slide at a concentration of 0.625 μg/mL and incubated for 15 min or 0.4 μg/mL and incubated for 30 minutes. The Leica Bond Polymer Refine Detection kit was used to visualize the staining—post primary for 8 minutes and polymer for 8 minutes. The slides were then treated with Peroxide Block for five minutes followed by Mixed DAB Refine for ten minutes. Stained sections were counterstained with hematoxylin for […] The slides were then dehydrated and cover-slipped.

B1: Mouse anti-argininosuccinate synthase monoclonal antibody used for immunohistochemistry in Example 2 (antibody, V domains shown)
VH: QIQLVQSGPELKKPGETVKISCKTSGYTFTDYSIHWVKQAPGKGLTWMGWINTETGEPTYADDFKGRFALSLETSASTAYLQLKNLRNEDTATYFCGSSYSYWGQGTLVTVSS
VL: DVVMTQTPLSLPVSLGDQASISCRSSQSLENSNGKTYLNWFLQKPGQSPQLLIYRVSNRFSGVPDRFSGSGSGTEFTLKISRVEAEDLGVYFCLQVKHVPWTFGGGTKLEIK
B1: binds.
